B1: Phage-245 (peptide)
peptide: YCSGHLPEYMSKCL
B2: Phage-210 (peptide)
peptide: YCSGHLPEYMEKCL
B3: Phage-181 (peptide)
peptide: YCEGHLPEYMSKCL
B4: Phage-160 (peptide)
peptide: YCDGHLPQYKAKCL
B5: Phage-219 (peptide)
peptide: YCAGHLPEYIDKCL
B6: Phage-296 (peptide)
peptide: YCAGHMPEYIDKCL
B7: Phage-188 (peptide)
peptide: YCAGHLPEYISKCL
B8: Phage-196 (peptide)
peptide: YCMGHSEEYMQKCL
B9: Phage-184 (peptide)
peptide: YCEGHSAEYMAKCL
B10: Phage-244 (peptide)
peptide: YCDGHSSEYMWKCL
B11: Phage-286 (peptide)
peptide: YCDGHASEYMWKCL
B12: Phage-192 (peptide)
peptide: YCDGHSAEYMMKCL
B13: Phage-226 (peptide)
peptide: YCEGHSAEYMNKCL
B14: Phage-237 (peptide)
peptide: YCDGHASEYMMKCL
B15: Phage-213 (peptide)
peptide: YCEGHSAEYMWKCL
B16: Phage-295 (peptide)
peptide: YCEGHSMEYMAKCL
B17: Phage-204 (peptide)
peptide: YCDGHSAEYMSKCL
B18: Phage-195 (peptide)
peptide: YCDGHLPVYMAKCL
B19: Phage-222 (peptide)
peptide: YCDGHLPAYMAKCL
B20: Phage-205 (peptide)
peptide: YCQGHLPQYIAKCL
B21: Phage-190 (peptide)
peptide: YCEGHLPQYLAKCL
B22: Phage-163 (peptide)
peptide: YCEGHAEEYMQKCL
B23: Phage-201 (peptide)
peptide: YCAGHTQEYMSKCL
B24: Phage-294 (peptide)
peptide: YCDGHSPEYMTKCL
B25: Phage-183 (peptide)
peptide: YCDGHLGIYMWKCL
B26: Phage-268 (peptide)
peptide: YCDGHLGIYMTKCL
B27: Phage-159 (peptide)
peptide: YCDGHLPEYIEKCL
B28: Phage-206 (peptide)
peptide: YCAGHLPQYMEKCM
B29: Phage-203 (peptide)
peptide: YCDGHVPQYMAKCL
B30: Phage-202 (peptide)
peptide: YCEGHSPQYMQKCL
B31: Phage-241 (peptide)
peptide: YCEGHSPQYMSKCL
B32: Phage-186 (peptide)
peptide: YCEGHSLEYIGKCL
B33: Phage-164 (peptide)
peptide: YCDGHAPEYIYKCL
B34: Phage-191 (peptide)
peptide: YCAGHLPLYMEKCL
B35: Phage-182 (peptide)
peptide: YCAGHLPEYMQKCL
B36: Phage-162 (peptide)
peptide: YCDGHSIEYRWKCL
B37: Phage-198 (peptide)
peptide: YCDGHLEEYMAKCL
B38: Phage-187 (peptide)
peptide: YCDGHQPEYMAKCL
B39: Phage-165 (peptide)
peptide: YCDGHLEEYKQKCL
B40: Phage-167 (peptide)
peptide: YCDGHTQEYIAKCL
B41: Phage-265 (peptide)
peptide: YCDGHSQEYIAKCL
B42: Phage-154 (peptide)
peptide: YCDGHMPEYIAKCL
B43: Phage-156 (peptide)
peptide: YCAGHLPEYFLKCL
B44: Phage-212 (peptide)
peptide: YCMGHLPQYMEKCL
B45: Phage-166 (peptide)
peptide: YCMGHLPQYMQKCL
B46: Phage-267 (peptide)
peptide: YCVGHLPQYMEKCL
B47: Phage-200 (peptide)
peptide: YCSGHAPIYMAKCL
B48: Phage-287 (peptide)
peptide: YCSGHAPEYMAKCL
B49: Phage-161 (peptide)
peptide: YCDGHAVEYMAKCL
B50: Phage-189 (peptide)
peptide: YCDGHIPIYMSKCL
B51: Phage-260 (peptide)
peptide: YCDGHSPIYMSKCL
B52: Phage-185 (peptide)
peptide: YCDGHSDEYMAKCL
B53: Phage-157 (peptide)
peptide: YCDGHSPLYIWKCL
B54: Phage-289 (peptide)
peptide: YCDGHSPDYIWKCL
B55: Phage-193 (peptide)
peptide: YCEGHLPQYIPKCL

How the values were obtained:
[1] = target: T1, Anti-CD28 Fab (SEQ ID NOs: 202, 203); assay: phage ELISA on captured biotinylated Fab;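 note: wells preblocked with or without CD28 antigen, then clonal phage supernatant added briefly, washed, and bound phage read out by ELISA using HRP-linked anti-M13 antibody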
T1 construct: biotinylated and captured on neutravidin coated plates in the phage ELISA
Experimental: (§1) Clonal phage were harvested as crude supernatants and screened via standard ELISAs. […] Prior to the addition of clonal phage, wells were incubated with blocking buffer and CD28 antigen or blocking buffer alone. Without washing or aspirating, clonal phage supernatants were then added to the wells and incubated for a short time. Wells were then washed followed by detection of bound phage using a horse radish conjugated anti-M13 antibody.

[2] = target: T1, Anti-CD28 Fab (SEQ ID NOs: 202, 203); assay: phage ELISA on captured Fab, wells pre-incubated with CD28 antigen (competitor: CD28);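 note: bound clonal phage detected with an HRP-linked anti-M13 antibody, compared against wells that received blocking buffer alone without CD28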
Experimental: as §1

T1 sequence (VH, as listed by the source, chain 1 of 2): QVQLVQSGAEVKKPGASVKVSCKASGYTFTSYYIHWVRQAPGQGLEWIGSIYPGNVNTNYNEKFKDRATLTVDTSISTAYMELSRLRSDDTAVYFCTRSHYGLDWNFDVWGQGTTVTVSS
T1 sequence (VL, as listed by the source, chain 2 of 2): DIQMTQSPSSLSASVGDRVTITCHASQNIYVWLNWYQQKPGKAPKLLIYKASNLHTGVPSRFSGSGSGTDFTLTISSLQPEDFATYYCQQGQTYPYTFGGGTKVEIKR

| Binder | Anti-CD28 Fab signal [1] | Anti-CD28 Fab signal in the presence of CD28 [2] |
| --- | --- | --- |
| B1 | 2.03 | 0.09 |
| B2 | 2.09 | 0.09 |
| B3 | 2.15 | 0.07 |
| B4 | 2.19 | 0.09 |
| B5 | 2.07 | 0.08 |
| B6 | 1.92 | 0.06 |
| B7 | 2.14 | 0.08 |
| B8 | 2.11 | 0.07 |
| B9 | 2.14 | 0.06 |
| B10 | 2.03 | 0.06 |
| B11 | 1.94 | 0.06 |
| B12 | 2.12 | 0.08 |
| B13 | 2.06 | 0.07 |
| B14 | 2.05 | 0.06 |
| B15 | 2.08 | 0.09 |
| B16 | 1.92 | 0.07 |
| B17 | 2.1 | 0.06 |
| B18 | 2.11 | 0.09 |
| B19 | 2.06 | 0.12 |
| B20 | 2.09 | 0.08 |
| B21 | 2.12 | 0.1 |
| B22 | 2.18 | 0.06 |
| B23 | 2.1 | 0.05 |
| B24 | 1.93 | 0.07 |
| B25 | 2.14 | 0.08 |
| B26 | 1.98 | 0.08 |
| B27 | 2.19 | 0.07 |
| B28 | 2.09 | 0.08 |

| Binder | Anti-CD28 Fab signal [1] | Anti-CD28 Fab signal in the presence of CD28 [2] |
| --- | --- | --- |
| B29 | 2.1 | 0.07 |
| B30 | 2.1 | 0.06 |
| B31 | 2.04 | 0.07 |
| B32 | 2.14 | 0.06 |
| B33 | 2.18 | 0.06 |
| B34 | 2.12 | 0.06 |
| B35 | 2.15 | 0.09 |
| B36 | 2.18 | 0.06 |
| B37 | 2.11 | 0.09 |
| B38 | 2.14 | 0.07 |
| B39 | 2.18 | 0.08 |
| B40 | 2.17 | 0.06 |
| B41 | 1.99 | 0.07 |
| B42 | 2.19 | 0.08 |
| B43 | 2.19 | 0.08 |
| B44 | 2.08 | 0.08 |
| B45 | 2.18 | 0.11 |
| B46 | 1.98 | 0.08 |
| B47 | 2.1 | 0.07 |
| B48 | 1.94 | 0.06 |
| B49 | 2.18 | 0.1 |
| B50 | 2.13 | 0.08 |
| B51 | 2 | 0.09 |
| B52 | 2.14 | 0.07 |
| B53 | 2.19 | 0.09 |
| B54 | 1.93 | 0.1 |
| B55 | 2.12 | 0.07 |

Source: patent publication US20260274955A1 (JANUX THERAPEUTICS, published 2026)
